In PMC4614863, “New Insights into the RNA-Binding and E3 Ubiquitin Ligase Activities of Roquins”:

Columns and labels:
[1] = target: T1, RC3H2 RNA-binding region (HEPN+ROQ), wild type (Homo sapiens, UniProt Q9HBD1 87-404); assay: analytical SEC; ITC: 20 mM Tris-HCl pH 8.0, 150 mM NaCl, 1 mM TCEP, 25 C; 200-500 uM RNA injected into 15-30 uM protein, one-site model; settings: protein: recombinant
T1 sequence: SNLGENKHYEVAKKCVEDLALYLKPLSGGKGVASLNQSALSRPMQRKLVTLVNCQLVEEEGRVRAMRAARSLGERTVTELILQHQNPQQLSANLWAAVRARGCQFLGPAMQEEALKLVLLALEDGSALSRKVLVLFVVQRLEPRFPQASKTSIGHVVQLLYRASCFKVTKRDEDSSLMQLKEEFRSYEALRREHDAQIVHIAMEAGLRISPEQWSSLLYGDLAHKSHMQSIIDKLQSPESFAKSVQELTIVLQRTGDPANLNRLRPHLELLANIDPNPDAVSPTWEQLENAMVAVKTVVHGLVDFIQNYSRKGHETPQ

[2] = target: T1, RC3H2 RNA-binding region (HEPN+ROQ), …; assay: crystal structure; duplex contacts HEPN and ROQ; same ASU also has stem-loop RNA; 2.5 A; ITC: 20 mM Tris-HCl pH 8.0, 150 mM NaCl, 1 mM TCEP, 25 C; 200-500 uM RNA injected into 15-30 uM protein, one-site model; settings: protein: recombinant; tags: His6-tag (pET28-MHL N-terminal TEV-cleavable, or pNIC-CH C-terminal uncleavable); removed by TEV where applicable; antiparallel self-duplex, 2 copies of strand; 10 Watson-Crick bp plus central UGU with U7-U9 wobble pairs
[3] = target: T1, RC3H2 RNA-binding region (HEPN+ROQ), …; assay: ITC; ITC: 20 mM Tris-HCl pH 8.0, 150 mM NaCl, 1 mM TCEP, 25 C; 200-500 uM RNA injected into 15-30 uM protein, one-site model; settings: protein: recombinant, tags: His6-tag (pET28-MHL N-terminal TEV-cleavable, or pNIC-CH C-terminal uncleavable), removed by TEV where applicable
[4] = target: T2, RC3H2 stem-loop triple mutant (Homo sapiens, UniProt Q9HBD1 87-404, Q244A;Y247A;R248E); assay: as above; settings: protein: recombinant; tags: His6-tag, removed by TEV where applicable; hairpin; mainly stem-loop in solution
T2 sequence: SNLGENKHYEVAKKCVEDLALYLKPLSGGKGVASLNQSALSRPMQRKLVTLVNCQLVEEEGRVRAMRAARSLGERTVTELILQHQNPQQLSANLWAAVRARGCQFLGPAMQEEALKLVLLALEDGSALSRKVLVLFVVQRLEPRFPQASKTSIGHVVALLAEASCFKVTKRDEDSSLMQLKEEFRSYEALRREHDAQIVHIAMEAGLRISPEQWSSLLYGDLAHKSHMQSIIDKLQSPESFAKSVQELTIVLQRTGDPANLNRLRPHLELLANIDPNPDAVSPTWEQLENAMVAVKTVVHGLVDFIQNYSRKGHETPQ

[5] = target: T2, RC3H2 stem-loop triple mutant; assay: analytical SEC; 47.3 kDa complex; ITC: 20 mM Tris-HCl pH 8.0, 150 mM NaCl, 1 mM TCEP, 25 C; 200-500 uM RNA injected into 15-30 uM protein, one-site model; settings: protein: recombinant; tags: His6-tag, removed by TEV where applicable; mixture of hairpin and self-duplex in solution
[6] = target: T3, RC3H2 quaternary mutant (triple mutant + phosphomimic) (Homo sapiens, UniProt Q9HBD1 87-404, Q244A;Y247A;R248E;S323E); assay: ITC; attributed to duplex form of Tnf23; ITC: 20 mM Tris-HCl pH 8.0, 150 mM NaCl, 1 mM TCEP, 25 C; 200-500 uM RNA injected into 15-30 uM protein, one-site model; settings: protein: recombinant; tags: His6-tag, removed by TEV where applicable; mixture of hairpin and self-duplex in solution
T3 sequence: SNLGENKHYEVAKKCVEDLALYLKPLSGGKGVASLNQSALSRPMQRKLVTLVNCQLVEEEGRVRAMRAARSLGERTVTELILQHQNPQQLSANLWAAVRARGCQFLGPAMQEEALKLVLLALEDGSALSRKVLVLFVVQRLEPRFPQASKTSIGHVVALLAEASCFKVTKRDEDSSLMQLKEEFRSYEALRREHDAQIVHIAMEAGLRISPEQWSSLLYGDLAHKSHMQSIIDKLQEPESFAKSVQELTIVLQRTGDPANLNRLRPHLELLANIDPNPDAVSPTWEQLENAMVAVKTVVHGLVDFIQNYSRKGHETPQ

[7] = tags: His6-tag (pET28-MHL N-terminal TEV-cleavable, or pNIC-CH C-terminal uncleavable), removed by TEV where applicable, hairpin and/or self-duplex

B1: Roquin2 CDE RNA (called 27-nt; 26 nt printed) (structured_RNA)
RNA: UUAAUAACUUCUGUGAAGUUGUUUAC
- binding result [1, 7]: binds

B2: Roquin CDE RNA, 19-nt (structured_RNA)
RNA: AUAACUUCUGUGAAGUUGC
- binding result [1, 7]: binds

B3: Ier3 CDE RNA duplex (crystal) (dsRNA)
RNA 1: AUGUUCUGUGAACAC
RNA 2: AUGUUCUGUGAACAC
- binding result [2]: binds

B4: Ier3 CDE RNA, 15-nt (structured_RNA)
RNA: AUGUUCUGUGAACAC
- Kd ([3]; hairpin, mainly stem-loop in solution): 356 ± 86 nM
- binding result [4]: no binding

B5: dsICOS (called 24-bp; 23 nt printed) (dsRNA)
RNA 1: UCUUCAGUCUAGACAGUUCGCUU
RNA 2: AAGCGAACUGUCUAGACUGAAGA
- binding result ([1]; tags: His6-tag (pET28-MHL N-terminal TEV-cleavable, or pNIC-CH C-terminal uncleavable; removed by TEV where applicable; ends not further stated)): binds

B6: Tnf23 CDE RNA, 23-nt (structured_RNA)
RNA: ACAUGUUUUCUGUGAAAACGGAG
- Kd ([3]; mixture of hairpin and self-duplex in solution): 144 ± 50 nM
- binding result [5]: binds
- Kd [6]: 590 nM
